This note sets out measurements from patent EP2329839B1.

Values joined by “and” are separate entries in the source; they are usually repeats but may differ in a detail not shown here. Equal entries are not always repeated. Where no end group is shown, it is not given here.

Assay [1] has as its target MC3-R (mouse arcuate nucleus) (mouse) (UniProt P33033). As to the kind of experiment: cell-based or functional assay.
In assay [2] the target is µ opioid receptor (MOP-R) on mouse POMC neurons (mouse) (UniProt P42866). As to the kind of experiment: cell-based or functional assay.
UniProt P42866, sequence (P42866 whole entry): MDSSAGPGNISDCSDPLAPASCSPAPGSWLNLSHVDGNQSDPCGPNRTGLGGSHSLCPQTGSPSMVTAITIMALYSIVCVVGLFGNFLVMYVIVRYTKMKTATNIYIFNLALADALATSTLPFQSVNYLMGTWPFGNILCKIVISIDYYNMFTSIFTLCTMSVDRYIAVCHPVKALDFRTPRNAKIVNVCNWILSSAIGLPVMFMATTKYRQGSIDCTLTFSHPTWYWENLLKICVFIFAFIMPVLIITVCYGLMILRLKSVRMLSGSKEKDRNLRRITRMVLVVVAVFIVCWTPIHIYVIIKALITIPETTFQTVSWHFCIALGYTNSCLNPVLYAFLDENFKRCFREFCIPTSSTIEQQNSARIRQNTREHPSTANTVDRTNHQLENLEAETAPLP
Assay [3] addresses T1, NPY Y2 receptor (on cell lines expressing it).
T1 sequence (P49146 whole entry, species assumed, looked up): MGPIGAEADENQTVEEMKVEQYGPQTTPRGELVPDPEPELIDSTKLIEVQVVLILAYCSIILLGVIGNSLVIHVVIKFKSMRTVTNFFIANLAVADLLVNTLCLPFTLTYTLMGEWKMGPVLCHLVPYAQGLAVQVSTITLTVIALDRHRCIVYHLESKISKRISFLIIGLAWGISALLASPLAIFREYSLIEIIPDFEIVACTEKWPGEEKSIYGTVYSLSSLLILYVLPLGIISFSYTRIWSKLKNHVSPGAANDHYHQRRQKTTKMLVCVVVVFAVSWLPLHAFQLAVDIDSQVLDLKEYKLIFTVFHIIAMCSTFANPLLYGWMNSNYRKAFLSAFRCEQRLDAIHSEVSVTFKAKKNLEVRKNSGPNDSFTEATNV
The assay can be described thus: receptor-binding studies on cell lines expressing the NPY Y2 receptor; labelled ligand not named.

UniProt P33033, sequence (P33033 whole entry): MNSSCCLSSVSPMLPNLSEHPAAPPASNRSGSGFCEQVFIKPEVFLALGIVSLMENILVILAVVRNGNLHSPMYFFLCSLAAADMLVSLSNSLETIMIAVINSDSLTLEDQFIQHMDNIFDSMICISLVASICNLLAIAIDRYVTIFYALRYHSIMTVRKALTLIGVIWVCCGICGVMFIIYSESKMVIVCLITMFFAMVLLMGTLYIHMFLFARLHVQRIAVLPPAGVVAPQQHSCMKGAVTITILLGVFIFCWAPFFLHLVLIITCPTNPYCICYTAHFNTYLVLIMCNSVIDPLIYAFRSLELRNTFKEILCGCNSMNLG

Take D-Trp^8-γMSH (peptide): the frequency of GABAergic IPSCs recorded from POMC neurons in assay [1] turned out to be 280%.

Take met-enkephalin (peptide): in assay [2], the hyperpolarization of the membrane potential of POMC cells (whole cell recording, mouse slices) was 10 mV and 20 mV.

Turning to Ac-LRHYLNLLTRQRY (ends and bridges not checked) [N-acetyl (Leu^28, Leu^31) NPY (24-36)], the half-inhibitory concentration (IC50) (in general, the concentration that inhibits the measured activity by half) in assay [3] amounted to 1.3 nM.
